Data published in publication PMC10343166.

Tests used:
[1] = biological target: Puromycin-sensitive aminopeptidase, wild type, with C-terminal polyhistidine sequence (kinetic studies) (human) (UniProt P55786); assay: competitive inhibition of enzyme activity (Dixon plots); apparent Ki from inhibition of Ala-4MβNA cleavage at increasing peptide concentrations; 20 mM HEPES pH 7.0, 2 mM BME, 37°C; 20 μM (PSA^wt) or 100 μM (PSA^F433A) Ala-4MβNA; triplicate
[2] = biological target: Puromycin-sensitive aminopeptidase F433A mutant, with C-terminal polyhistidine sequence (human) (UniProt P55786); assay: as above
Chain of Puromycin-sensitive aminopeptidase F433A mutant, with C-terminal polyhistidine sequence (human) (P55786 whole entry F433A): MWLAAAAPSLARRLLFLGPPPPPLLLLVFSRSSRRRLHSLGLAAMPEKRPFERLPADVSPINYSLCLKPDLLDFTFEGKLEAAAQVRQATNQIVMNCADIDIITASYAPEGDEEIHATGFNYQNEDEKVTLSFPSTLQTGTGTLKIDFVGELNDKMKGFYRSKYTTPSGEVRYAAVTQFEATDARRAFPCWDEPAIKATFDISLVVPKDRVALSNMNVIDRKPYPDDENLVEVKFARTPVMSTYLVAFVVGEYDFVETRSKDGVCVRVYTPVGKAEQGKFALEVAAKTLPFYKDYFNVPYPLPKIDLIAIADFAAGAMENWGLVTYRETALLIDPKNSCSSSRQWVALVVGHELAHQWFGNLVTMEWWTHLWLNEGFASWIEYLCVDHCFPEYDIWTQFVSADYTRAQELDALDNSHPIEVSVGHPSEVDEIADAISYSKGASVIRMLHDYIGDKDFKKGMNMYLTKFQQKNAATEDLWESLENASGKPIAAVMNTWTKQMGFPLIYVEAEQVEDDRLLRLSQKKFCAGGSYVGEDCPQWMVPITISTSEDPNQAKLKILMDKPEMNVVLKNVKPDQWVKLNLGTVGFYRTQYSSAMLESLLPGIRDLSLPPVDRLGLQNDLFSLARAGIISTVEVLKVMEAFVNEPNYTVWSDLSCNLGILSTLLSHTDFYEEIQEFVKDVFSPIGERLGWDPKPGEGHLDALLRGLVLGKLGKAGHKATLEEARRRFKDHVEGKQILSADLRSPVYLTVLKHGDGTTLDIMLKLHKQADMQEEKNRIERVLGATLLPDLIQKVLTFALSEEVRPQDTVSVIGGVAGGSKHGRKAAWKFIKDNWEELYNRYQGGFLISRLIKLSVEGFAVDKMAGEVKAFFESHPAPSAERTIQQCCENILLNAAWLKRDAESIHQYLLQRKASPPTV

Chain of Puromycin-sensitive aminopeptidase, wild type, with C-terminal polyhistidine sequence (kinetic studies) (human) (P55786 whole entry): as the sequence (P55786 whole entry F433A) above, with A433F counted along it

- Ki [1]: 440 nM
- Ki [2]: 2600 nM
Substance: Dynorphin A(1–17) (peptide)
